{"source": "the DeepSol protein solubility set", "data": [{"assay": "soluble on expression in E. coli; label from the status in PepcDB or PDB records", "values": [{"sequence": "MGSDKIHHHHHHENLYFQGMKKVFITTGTEHYLRQLMENYIGENVTLLQNFSQSLLYQESTGEKLFQEGKEYRVLQSSGSLKGFGIVVFEYIQLRDEEIPIFLQMYQHASLHFSETPGLQSTKLTKAMNTNQFLIVSFWDSEVFFQEWKKTPLHKEITSIMKKNNTQVGFSHEDIYHYPEFSHDAK", "soluble on expression in E. coli": "soluble"}, {"sequence": "MGSDKIHHHHHHMEMIMRPDRSLFIVEDDATFAKTLKRSFEKRDYDVVVCHGREDLLGALETAVPAYAVVDLKLGARGSGLECVKLLSARDTSMRIVVLTGFASIATAVEAIKLGACHYLAKPANTDDIEAAFGRAEGDVSVSLSSRPTSIKNLEWERIHETLVETGFNISETARRLGLHRRTLARKLEKRVVR", "soluble on expression in E. coli": "not soluble"}, {"sequence": "MSLDNLALRMRPKTIDQVIGQEHLVGPGKIIRRMVEANRLSSMILYGPPGIGKTSIASAIAGTTKYAFRTFNATVDSKKRLQEISEEAKFSGGLVLLLDEIHRLDKTKQDFLLPLLESGLVIMIGATTENPFFSVTPAIRSRVQIFELEPLSNQDVKEALQIALSNPERGFDFPIELDEDALDFIATSTNGDLRSAFNSLDLAVLSTPENDEGIRHITLDIMENSLQRSYITMDKDGDGHYDVLSALQKSIRGSDVDASLHYTARLIEAGDLPSLARRLTVIAYEDIGLANPEAQIHTVTALDAAQKIGFPEARILIANVVIDLALSPKSNSAYVAMDKALADLKTSGHLPIPRHLRDGHYSGSKELGNAQDYLYPHNYPGNWVKQDYLPEKIRNHHYFQAEDTGKYERALAQRKEAIDRLREGHHHHHH", "soluble on expression in E. coli": "soluble"}, {"sequence": "MSGRKFSFEVTKTSSAPAATLFRLVTDGGNWATWAKPIVAQSSWARRGDPAPGGIGAIRKLGMWPVFVQEETVEYEQDRRHVYKLVGARTPVQDYFGEVVLTPNASGGTDLRWSGSFTEKVRGTGPVMRAALGGAVRFFAGQLVKAAEREAVRR", "soluble on expression in E. coli": "soluble"}, {"sequence": "MEKIKYGFGEIEAAASDIQSTSGRINSLLEDLKAHIRPMAAAWEGESAQAYNEAQQQWDSSAAELNTILSTISNTVRQGNDRMSEVNRMAAASWS", "soluble on expression in E. coli": "not soluble"}, {"sequence": "MGQIQYSEKYFDDTFEYRHVVLPPEVAKLLPKNRLLSENEWRAIGVQQSRGWVHYAVHRPEPHIMLFRRPLNYQQQQENQAQNMLVK", "soluble on expression in E. coli": "soluble"}, {"sequence": "MSKQDLLLEIGLEEMPARFLNESMVQLGDKLTGWLKEKNITHGEVKLFNTPRRLAVFVKDVAEKQDDIKEEAKGPAKKIALDADGNWTKAAIGFSKGQGANVEDLYIKEVKGIEYVFVQKFQAGQETKSLLPELSGLITSLHFPKNMRWGNEDLRYIRPIKWIVALFGQDVIPFSITNVESGRTTQGHRFLGHEVSIESPSAYEEQLKGQHVIADPSVRKQMIQSQLETMAAENNWSIPVDEDLLDEVNHLVEYPTALYGSFESEFLSIPEEVLVTTMKEHQRYFPVKDKNGDLLPHFITVRNGNSHAIENVARGNEKVLRARLSDASFFYKEDQKLNIDANVKKLENIVFHEELGSLADKVRRVTSIAEKLAVRLQADEDTLKHVKRAAEISKFDLVTHMIYEFPELQGIMGEKYARMLGEDEAVAAAVNEHYMPRSAGGETPSTFTGAVVAMADKLDTIASFFSIGVIPTGSQDPYGLPRQASGIVAILLDRNWGISFEELLTFVQTDKENELLDFFTQRLKYVLNAEQIRHDVIDAVLESSELEPYSALHKAQVLEQKLGAPGFKETAEALGRVISISKKGVRGDIQPDLFENEYEAKLFDAYQTAKENLQENFSKKDYEAALASLAALKEPIDAYFDHTMVIADNESLKANRLAQMVSLADEIKSFANMNALI", "soluble on expression in E. coli": "not soluble"}, {"sequence": "SVHPALEFSDCYSDSPDFRERLKCYENELEKTNKFLKDVIKDGNNVINTFKEYSLAVQKFSQTLQSFQFDFIGDTLTDDEMNIAESFREFAGLLQDVEEARMMLVQNASDLLIKPLEKFRKEQIGVTKERRKKFEKESEKYYSQLDKHVNLSSKKKETQLQEADEQLDKERQAFYESSVEYVYQIQQVQEKKKFDVVEPVLAFLQSILTLNNLTVEMYTFRNKGTKCNTGEIPFQKVQFCTIQVDISTFMVHFCTFKLYFCTFKIP", "soluble on expression in E. coli": "soluble"}, {"sequence": "MSLSNLTIDVQTVTQKGKKPYIEYQINRPSFHNFSDSKFQNKLNFYYKKSTDKFKTRLEKDAKKYYKETEGSSTPFHPYVANVDYKVSLNKPPLLSLYLNYYQYTGGAHGMYTWKANTFDLKEKKLLHLDDLFQQEDKYKEVIRAEIVRKIKQNEGIYFPDATEKVMSTKKFHFFLEPNNLVIYFPLYEIAPYSSGIPQFRIPYTLLREYLKPSYQNILIDNKEGHHHHHH", "soluble on expression in E. coli": "soluble"}]}]}
